In paper PMC2696590 one finds Kd and Ki data, which are given here for 8 substances.

pKd, pKi: −log10 of the molar value.

Assay [1] has as its target NTS1-7o, MBP and TrxA-H10 fusion (rat) (UniProt P20789). The experiment in a line: radioligand binding; saturation binding of 1 pM to 10 nM [^3H]-NT to intact E. coli cells expressing the receptor; TEBB buffer, no detergents, 2 hours on ice, GF/B filters; apparent KD, one-site with ligand depletion.
In assay [2] the target is NTS1-7l, MBP and TrxA-H10 fusion (rat) (UniProt P20789). Described as above.
Another assay addresses SR142948. The experiment in a line: competition binding assay against [3H]-NT on intact E. coli cells. As to conditions: 5 nM agonist [3H]-NT.
The target of the next assay is [^3H]-neurotensin. The experiment in a line: saturation binding assay on intact E. coli cells.

wild-type NTS1 (N-terminally truncated rat neurotensin type I receptor starting at Thr43), MBP and TrxA-H10 fusion (from UniProt P20789) NTS1-7f, sequence (P20789 whole entry, looked up, change not shown, the tested form may be a part): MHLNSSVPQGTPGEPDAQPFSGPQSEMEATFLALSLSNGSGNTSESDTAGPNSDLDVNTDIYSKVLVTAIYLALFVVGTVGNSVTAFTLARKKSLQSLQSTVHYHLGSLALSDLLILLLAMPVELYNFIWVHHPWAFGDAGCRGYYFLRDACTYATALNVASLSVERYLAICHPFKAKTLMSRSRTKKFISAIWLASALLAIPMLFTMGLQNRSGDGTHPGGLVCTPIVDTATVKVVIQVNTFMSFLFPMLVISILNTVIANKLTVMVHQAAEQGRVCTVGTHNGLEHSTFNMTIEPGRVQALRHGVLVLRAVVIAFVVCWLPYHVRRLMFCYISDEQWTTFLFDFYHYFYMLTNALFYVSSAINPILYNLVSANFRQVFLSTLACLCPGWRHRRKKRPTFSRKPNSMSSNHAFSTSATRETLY
wild-type NTS1 (N-terminally truncated rat neurotensin type I receptor starting at Thr43), MBP and TrxA-H10 fusion (from UniProt P20789) NTS1-7l, sequence (P20789 whole entry, looked up, change not shown, the tested form may be a part): as above
wild-type NTS1 (N-terminally truncated rat neurotensin type I receptor starting at Thr43), MBP and TrxA-H10 fusion (from UniProt P20789) NTS1-7o, sequence (P20789 whole entry, looked up, change not shown, the tested form may be a part): as above
wild-type NTS1 (N-terminally truncated rat neurotensin type I receptor starting at Thr43), MBP and TrxA-H10 fusion (from UniProt P20789) NTS1-7e, sequence (P20789 whole entry, looked up, change not shown, the tested form may be a part): as above
wild-type NTS1 (N-terminally truncated rat neurotensin type I receptor starting at Thr43), MBP and TrxA-H10 fusion (from UniProt P20789) NTS1-7g, sequence (P20789 whole entry, looked up, change not shown, the tested form may be a part): as above
wild-type NTS1 (N-terminally truncated rat neurotensin type I receptor starting at Thr43), MBP and TrxA-H10 fusion (from UniProt P20789) A86L; I260A; F342A; F358A, sequence (P20789 whole entry A86L/I260A/F342A/F358A, looked up, the tested form may be a part): as the sequence (P20789 whole entry, looked up, change not shown, the tested form may be a part) above, with A86L, I260A, F342A, F358A counted along it
NTS1-7l, MBP and TrxA-H10 fusion (rat), sequence (P20789 43-424): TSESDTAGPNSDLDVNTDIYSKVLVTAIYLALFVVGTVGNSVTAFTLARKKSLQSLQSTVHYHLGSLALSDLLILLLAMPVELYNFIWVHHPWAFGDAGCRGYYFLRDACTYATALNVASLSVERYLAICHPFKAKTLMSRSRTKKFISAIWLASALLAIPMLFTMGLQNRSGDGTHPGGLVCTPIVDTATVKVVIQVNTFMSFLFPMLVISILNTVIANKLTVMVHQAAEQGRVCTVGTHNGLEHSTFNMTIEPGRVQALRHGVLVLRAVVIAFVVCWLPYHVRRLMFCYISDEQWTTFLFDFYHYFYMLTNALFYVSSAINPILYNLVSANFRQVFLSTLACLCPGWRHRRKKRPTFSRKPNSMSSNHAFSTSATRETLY
NTS1-7o, MBP and TrxA-H10 fusion (rat), sequence (P20789 43-424): as above
wild-type NTS1 (N-terminally truncated rat neurotensin type I receptor starting at Thr43), MBP and TrxA-H10 fusion (from UniProt P20789) A86L; F358A, sequence (P20789 whole entry A86L/F358A, looked up, the tested form may be a part): as the sequence (P20789 whole entry, looked up, change not shown, the tested form may be a part) above, with A86L, F358A counted along it

Regarding [^3H]-neurotensin (peptide), the figures for the pKd in assay [1] and in assay [2] were 10.52 and 9.66, respectively.
In the case of “wild-type NTS1 (N-terminally truncated rat neurotensin type I receptor starting at Thr43), MBP and TrxA-H10 fusion (from UniProt P20789) A86L; F358A”, the pKi with SR142948 is 9.24.
For “wild-type NTS1 (N-terminally truncated rat neurotensin type I receptor starting at Thr43), MBP and TrxA-H10 fusion (from UniProt P20789) A86L; I260A; F342A; F358A”, in the assay with SR142948, the negative-log Ki (pKi) is 8.92.
“wild-type NTS1 (N-terminally truncated rat neurotensin type I receptor starting at Thr43), MBP and TrxA-H10 fusion (from UniProt P20789) NTS1-7e” showed a negative-log Kd (pKd) in assay [^3H]-neurotensin of 9.85. The negative-log Ki (pKi) with SR142948 was 9.04.
In turn, “wild-type NTS1 (N-terminally truncated rat neurotensin type I receptor starting at Thr43), MBP and TrxA-H10 fusion (from UniProt P20789) NTS1-7f” showed a negative logarithm of the Kd (pKd) in assay [^3H]-neurotensin of 10.40. The pKi with SR142948 is 9.14.
Take “wild-type NTS1 (N-terminally truncated rat neurotensin type I receptor starting at Thr43), MBP and TrxA-H10 fusion (from UniProt P20789) NTS1-7g”: in assay [^3H]-neurotensin, the negative logarithm of the Kd (pKd) was 9.68. Also, the pKi with SR142948 is 8.55.
In the assay with SR142948, “wild-type NTS1 (N-terminally truncated rat neurotensin type I receptor starting at Thr43), MBP and TrxA-H10 fusion (from UniProt P20789) NTS1-7l” gave a negative logarithm of the Ki (pKi) of 9.49.
“wild-type NTS1 (N-terminally truncated rat neurotensin type I receptor starting at Thr43), MBP and TrxA-H10 fusion (from UniProt P20789) NTS1-7o” gave a pKi with SR142948 of 9.66.

As a reminder, the pKd is the Kd on a negative log10 scale, so that one unit is a factor of ten. The pKi is the Ki on a negative log10 scale, so that one unit is a factor of ten. Higher therefore signals a small Ki.
